Test results reported in patent US20120121533, “NUCLEIC ACID LIGANDS TO LL37” (BIOTEX, INC., published 2012).

Biological target: T1, LL37 (human cathelicidin peptide LL-37) (Homo sapiens, UniProt P49913 P49913:134-170)
T1 chain: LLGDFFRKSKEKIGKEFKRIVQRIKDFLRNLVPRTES
Experiment: SPR; biotinylated aptamer immobilised, increasing LL37 added; nonsense DNA on reference channel
Details: label: biotin (immobilised on neutravidin SPR chip)
Procedure: Aptamers were immobilized to the test channel of a neutravidin-coated SPR chip via standard biotin modification. A nonsense DNA was immobilized on the reference channel to identically match the electrostatic conditions of each channel, and then increasing concentrations of target protein LL37 were added such that no regeneration steps are required. The differential response to each dose was extracted and fit to a binding isotherm model to accurately determine Kd.

ACTGGGTCTCACCATCGAAAATCGAAATGACTAAAAGGCC (ssDNA) [SEQ7 (Apta#222)]
Kd: 118 nM
